{
  "source": "patent US20240026443A1",
  "about": "(University of Washington, published 2024)",
  "binders": {"B1": {"name": "double stranded DNA deaminase A immunity (DddAI) protein (other)", "chain": "MYADDFDGEIEIDEVDSLVEFLSRRPAFDANNFVLTFEESGFPQLNIFAKNDIAVVYYMDIGENFVSKGNSASGGTEKFYENKLGGEVDLSKDCVVSKEQMIEAAKQFFATKQRPEQLTWSEL", "notes": "Expressed inside P. aeruginosa from an arabinose-inducible promoter at the Tn7 attachment site; also called DddIA; DddA cognate immunity determinant"}},
  "biological_target": "T1, DddA (intact deaminase domain of the bacterial toxin-derived double stranded DNA cytosine deaminase) (Burkholderia cenocepacia (strain H111), UniProt P0DUH5 1290-1427, limits assumed)",
  "T1 construct": "also called double stranded DNA deaminase",
  "T1 sequence": "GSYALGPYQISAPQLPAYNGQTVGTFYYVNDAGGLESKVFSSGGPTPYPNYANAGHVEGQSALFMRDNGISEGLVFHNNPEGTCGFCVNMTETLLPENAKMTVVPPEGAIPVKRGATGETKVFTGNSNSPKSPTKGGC",
  "assay": "X-ray crystal structure of the complex",
  "data": [
    {"binder": "B1", "values": [
      {"measurement": "binding result", "value": "binds"}
    ]}
  ]
}
